Data published in PMC10520678.

What was measured:
TRIM21 [1] = target: TRIM21 (UniProt P19474); test: anti-Flag co-IP, TRIM21 blot; conditions: reference: wild type, EGF-treated; sites Y288
TRIM21 [2] = target: TRIM21 (UniProt P19474); test: co-IP, blot; conditions: reference: wild type CD47, c-Src CA expressed; sites Y288

Substance	binding against the reference (TRIM21 [1])	binding against the reference (TRIM21 [2])
CD47 (from UniProt Q08722) Y288F, EGF-treated	stronger	
CD47 (from UniProt Q08722) Y288F, c-Src CA expressed		stronger
